B1: Glutamate receptor ionotropic, kainate 2 (Rattus norvegicus (Rat)), P42260 (parent)
chain: MKIISPVLSNLVFSRSIKVLLCLLWIGYSQGTTHVLRFGGIFEYVESGPMGAEELAFRFAVNTINRNRTLLPNTTLTYDTQKINLYDSFEASKKACDQLSLGVAAIFGPSHSSSANAVQSICNALGVPHIQTRWKHQVSDNKDSFYVSLYPDFSSLSRAILDLVQFFKWKTVTVVYDDSTGLIRLQELIKAPSRYNLRLKIRQLPADTKDAKPLLKEMKRGKEFHVIFDCSHEMAAGILKQALAMGMMTEYYHYIFTTLDLFALDVEPYRYSGVNMTGFRILNTENTQVSSIIEKWSMERLQAPPKPDSGLLDGFMTTDAALMYDAVHVVSVAVQQFPQMTVSSLQCNRHKPWRFGTRFMSLIKEAHWEGLTGRITFNKTNGLRTDFDLDVISLKEEGLEKIGTWDPASGLNMTESQKGKPANITDSLSNRSLIVTTILEEPYVLFKKSDKPLYGNDRFEGYCIDLLRELSTILGFTYEIRLVEDGKYGAQDDVNGQWNGMVRELIDHKADLAVAPLAITYVREKVIDFSKPFMTLGISILYRKPNGTNPGVFSFLNPLSPDIWMYILLAYLGVSCVLFVIARFSPYEWYNPHPCNPDSDVVENNFTLLNSFWFGVGALMQQGSELMPKALSTRIVGGIWWFFTLIIISSYTANLAAFLTVERMESPIDSADDLAKQTKIEYGAVEDGATMTFFKKSKISTYDKMWAFMSSRRQSVLVKSNEEGIQRVLTSDYAFLMESTTIEFVTQRNCNLTQIGGLIDSKGYGVGTPMGSPYRDKITIAILQLQEEGKLHMMKEKWWRGNGCPEEESKEASALGVQNIGGIFIVLAAGLVLSVFVAVGEFLYKSKKNAQLEKRSFCSAMVEELRMSLKCQRRLKHKPQAPVIVKTEEVINMHTFNDRRLPGKETMA

Variants of: B1
Conditions: with MAP3K11, Q16584
Chain of MAP3K11, Q16584 (Q16584 whole entry, looked up): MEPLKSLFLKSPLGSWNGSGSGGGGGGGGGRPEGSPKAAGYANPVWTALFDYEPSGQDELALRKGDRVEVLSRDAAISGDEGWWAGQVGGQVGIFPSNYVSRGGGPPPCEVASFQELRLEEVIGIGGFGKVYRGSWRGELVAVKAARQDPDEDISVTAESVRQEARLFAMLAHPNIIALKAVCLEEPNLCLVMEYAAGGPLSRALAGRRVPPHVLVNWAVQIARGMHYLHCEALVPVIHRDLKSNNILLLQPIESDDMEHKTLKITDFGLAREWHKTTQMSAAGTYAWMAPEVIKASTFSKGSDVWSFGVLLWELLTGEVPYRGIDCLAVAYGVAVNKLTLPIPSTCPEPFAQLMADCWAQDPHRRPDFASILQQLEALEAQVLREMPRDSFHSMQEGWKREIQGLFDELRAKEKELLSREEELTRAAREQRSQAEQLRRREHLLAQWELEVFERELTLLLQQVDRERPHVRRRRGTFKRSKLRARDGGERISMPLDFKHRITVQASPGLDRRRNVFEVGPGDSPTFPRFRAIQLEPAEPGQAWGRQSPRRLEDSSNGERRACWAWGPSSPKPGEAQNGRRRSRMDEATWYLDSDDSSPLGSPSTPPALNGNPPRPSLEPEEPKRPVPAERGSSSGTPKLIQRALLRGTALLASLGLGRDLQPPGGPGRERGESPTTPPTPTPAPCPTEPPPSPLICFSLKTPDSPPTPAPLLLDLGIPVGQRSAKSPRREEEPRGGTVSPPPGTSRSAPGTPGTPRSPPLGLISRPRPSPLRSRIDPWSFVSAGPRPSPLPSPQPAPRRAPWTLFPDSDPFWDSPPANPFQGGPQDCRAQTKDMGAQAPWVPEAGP

Row | effect of a mutation on the interaction | Variant
1 | decreasing interaction | K886R
